The source of these data is PMC11703740, “Disparate molecular mechanisms in cardiac ryanodine receptor channelopathies” (Frontiers in Molecular Biosciences, 2024).

A word on the stoichiometry N: it is the number of molecules, sites or subunits per partner or assembly.

The data set deals with the molecule itself. Description: cross-linking; HEK293 cell homogenate supernatant (20 ug; 5 mM HEPES, 0.3 M sucrose, 10 mM DTT, pH 7.4) with glutaraldehyde (0.0025% or 260 umol/L) for 0-60 min; SDS-PAGE and Western blot with Ab^cMyc; monomer and tetramer bands by densitometry.

B1: NT^WT (human RyR2 residues 1-906, cMyc-tagged) (domain or fragment, UniProt Q92736 1-906, looked up)
chain: MADGGEGEDEIQFLRTDDEVVLQCTATIHKEQQKLCLAAEGFGNRLCFLESTSNSKNVPPDLSICTFVLEQSLSVRALQEMLANTVEKSEGQVDVEKWKFMMKTAQGGGHRTLLYGHAILLRHSYSGMYLCCLSTSRSSTDKLAFDVGLQEDTTGEACWWTIHPASKQRSEGEKVRVGDDLILVSVSSERYLHLSYGNGSLHVDAAFQQTLWSVAPISSGSEAAQGYLIGGDVLRLLHGHMDECLTVPSGEHGEEQRRTVHYEGGAVSVHARSLWRLETLRVAWSGSHIRWGQPFRLRHVTTGKYLSLMEDKNLLLMDKEKADVKSTAFTFRSSKEKLDVGVRKEVDGMGTSEIKYGDSVCYIQHVDTGLWLTYQSVDVKSVRMGSIQRKAIMHHEGHMDDGISLSRSQHEESRTARVIRSTVFLFNRFIRGLDALSKKAKASTVDLPIESVSLSLQDLIGYFHPPDEHLEHEDKQNRLRALKNRQNLFQEEGMINLVLECIDRLHVYSSAAHFADVAGREAGESWKSILNSLYELLAALIRGNRKNCAQFSGSLDWLISRLERLEASSGILEVLHCVLVESPEALNIIKEGHIKSIISLLDKHGRNHKVLDVLCSLCVCHGVAVRSNQHLICDNLLPGRDLLLQTRLVNHVSSMRPNIFLGVSEGSAQYKKWYYELMVDHTEPFVTAEATHLRVGWASTEGYSPYPGGGEEWGGNGVGDDLFSYGFDGLHLWSGCIARTVSSPNQHLLRTDDVISCCLDLSAPSISFRINGQPVQGMFENFNIDGLFFPVVSFSAGIKVRFLLGGRHGEFKFLPPPGYAPCYEAVLPKEKLKVEHSREYKQERTYTRDLLGPTVSLTQAAFTPIPVDTSQIVLPPHLERIREKLAENIHELWVMNKIELGWQYGP
notes: cardiac ryanodine receptor (RyR2), human, N-terminus residues 1-906; also called wild-type RyR2 N-terminus; RyR2-NT; source: HEK293, transiently transfected, in cell homogenate (cross-linking) or CHAPS-solubilized lysate (co-IP)
Turning to B1, the “stoichiometry N” value worked out at 4.

B2: NT^G357S (human RyR2 residues 1-906, cMyc-tagged, G357S) (domain or fragment, UniProt Q92736 1-906, looked up)
chain: MADGGEGEDEIQFLRTDDEVVLQCTATIHKEQQKLCLAAEGFGNRLCFLESTSNSKNVPPDLSICTFVLEQSLSVRALQEMLANTVEKSEGQVDVEKWKFMMKTAQGGGHRTLLYGHAILLRHSYSGMYLCCLSTSRSSTDKLAFDVGLQEDTTGEACWWTIHPASKQRSEGEKVRVGDDLILVSVSSERYLHLSYGNGSLHVDAAFQQTLWSVAPISSGSEAAQGYLIGGDVLRLLHGHMDECLTVPSGEHGEEQRRTVHYEGGAVSVHARSLWRLETLRVAWSGSHIRWGQPFRLRHVTTGKYLSLMEDKNLLLMDKEKADVKSTAFTFRSSKEKLDVGVRKEVDGMGTSEIKYSDSVCYIQHVDTGLWLTYQSVDVKSVRMGSIQRKAIMHHEGHMDDGISLSRSQHEESRTARVIRSTVFLFNRFIRGLDALSKKAKASTVDLPIESVSLSLQDLIGYFHPPDEHLEHEDKQNRLRALKNRQNLFQEEGMINLVLECIDRLHVYSSAAHFADVAGREAGESWKSILNSLYELLAALIRGNRKNCAQFSGSLDWLISRLERLEASSGILEVLHCVLVESPEALNIIKEGHIKSIISLLDKHGRNHKVLDVLCSLCVCHGVAVRSNQHLICDNLLPGRDLLLQTRLVNHVSSMRPNIFLGVSEGSAQYKKWYYELMVDHTEPFVTAEATHLRVGWASTEGYSPYPGGGEEWGGNGVGDDLFSYGFDGLHLWSGCIARTVSSPNQHLLRTDDVISCCLDLSAPSISFRINGQPVQGMFENFNIDGLFFPVVSFSAGIKVRFLLGGRHGEFKFLPPPGYAPCYEAVLPKEKLKVEHSREYKQERTYTRDLLGPTVSLTQAAFTPIPVDTSQIVLPPHLERIREKLAENIHELWVMNKIELGWQYGP
notes: cardiac ryanodine receptor (RyR2), human, N-terminus residues 1-906 with the CPVT mutation G357S; Mutation made by site-directed mutagenesis in the NT^WT plasmid; a variant reported in patients; also called type II^intra variant; source: HEK293, transiently transfected, in cell homogenate (cross-linking) or CHAPS-solubilized lysate (co-IP)
Take B2: the “stoichiometry N” value amounted to 4.

B3: NT^A77T (human RyR2 residues 1-906, cMyc-tagged, A77T) (domain or fragment, UniProt Q92736 1-906, looked up)
chain: MADGGEGEDEIQFLRTDDEVVLQCTATIHKEQQKLCLAAEGFGNRLCFLESTSNSKNVPPDLSICTFVLEQSLSVRTLQEMLANTVEKSEGQVDVEKWKFMMKTAQGGGHRTLLYGHAILLRHSYSGMYLCCLSTSRSSTDKLAFDVGLQEDTTGEACWWTIHPASKQRSEGEKVRVGDDLILVSVSSERYLHLSYGNGSLHVDAAFQQTLWSVAPISSGSEAAQGYLIGGDVLRLLHGHMDECLTVPSGEHGEEQRRTVHYEGGAVSVHARSLWRLETLRVAWSGSHIRWGQPFRLRHVTTGKYLSLMEDKNLLLMDKEKADVKSTAFTFRSSKEKLDVGVRKEVDGMGTSEIKYGDSVCYIQHVDTGLWLTYQSVDVKSVRMGSIQRKAIMHHEGHMDDGISLSRSQHEESRTARVIRSTVFLFNRFIRGLDALSKKAKASTVDLPIESVSLSLQDLIGYFHPPDEHLEHEDKQNRLRALKNRQNLFQEEGMINLVLECIDRLHVYSSAAHFADVAGREAGESWKSILNSLYELLAALIRGNRKNCAQFSGSLDWLISRLERLEASSGILEVLHCVLVESPEALNIIKEGHIKSIISLLDKHGRNHKVLDVLCSLCVCHGVAVRSNQHLICDNLLPGRDLLLQTRLVNHVSSMRPNIFLGVSEGSAQYKKWYYELMVDHTEPFVTAEATHLRVGWASTEGYSPYPGGGEEWGGNGVGDDLFSYGFDGLHLWSGCIARTVSSPNQHLLRTDDVISCCLDLSAPSISFRINGQPVQGMFENFNIDGLFFPVVSFSAGIKVRFLLGGRHGEFKFLPPPGYAPCYEAVLPKEKLKVEHSREYKQERTYTRDLLGPTVSLTQAAFTPIPVDTSQIVLPPHLERIREKLAENIHELWVMNKIELGWQYGP
notes: cardiac ryanodine receptor (RyR2), human, N-terminus residues 1-906 with the patient mutation A77T; Mutation made by site-directed mutagenesis in the NT^WT plasmid; a variant reported in patients; also called type II^inter variant; source: HEK293, transiently transfected, in cell homogenate (cross-linking) or CHAPS-solubilized lysate (co-IP)
Consider B3, for which the “stoichiometry N” value is 4.

B4: NT^R169L (human RyR2 residues 1-906, cMyc-tagged, R169L) (domain or fragment, UniProt Q92736 1-906, looked up)
chain: MADGGEGEDEIQFLRTDDEVVLQCTATIHKEQQKLCLAAEGFGNRLCFLESTSNSKNVPPDLSICTFVLEQSLSVRALQEMLANTVEKSEGQVDVEKWKFMMKTAQGGGHRTLLYGHAILLRHSYSGMYLCCLSTSRSSTDKLAFDVGLQEDTTGEACWWTIHPASKQLSEGEKVRVGDDLILVSVSSERYLHLSYGNGSLHVDAAFQQTLWSVAPISSGSEAAQGYLIGGDVLRLLHGHMDECLTVPSGEHGEEQRRTVHYEGGAVSVHARSLWRLETLRVAWSGSHIRWGQPFRLRHVTTGKYLSLMEDKNLLLMDKEKADVKSTAFTFRSSKEKLDVGVRKEVDGMGTSEIKYGDSVCYIQHVDTGLWLTYQSVDVKSVRMGSIQRKAIMHHEGHMDDGISLSRSQHEESRTARVIRSTVFLFNRFIRGLDALSKKAKASTVDLPIESVSLSLQDLIGYFHPPDEHLEHEDKQNRLRALKNRQNLFQEEGMINLVLECIDRLHVYSSAAHFADVAGREAGESWKSILNSLYELLAALIRGNRKNCAQFSGSLDWLISRLERLEASSGILEVLHCVLVESPEALNIIKEGHIKSIISLLDKHGRNHKVLDVLCSLCVCHGVAVRSNQHLICDNLLPGRDLLLQTRLVNHVSSMRPNIFLGVSEGSAQYKKWYYELMVDHTEPFVTAEATHLRVGWASTEGYSPYPGGGEEWGGNGVGDDLFSYGFDGLHLWSGCIARTVSSPNQHLLRTDDVISCCLDLSAPSISFRINGQPVQGMFENFNIDGLFFPVVSFSAGIKVRFLLGGRHGEFKFLPPPGYAPCYEAVLPKEKLKVEHSREYKQERTYTRDLLGPTVSLTQAAFTPIPVDTSQIVLPPHLERIREKLAENIHELWVMNKIELGWQYGP
notes: cardiac ryanodine receptor (RyR2), human, N-terminus residues 1-906 with the CPVT mutation R169L; Mutation made by site-directed mutagenesis in the NT^WT plasmid; a variant reported in patients; also called type I variant; source: HEK293, transiently transfected, in cell homogenate (cross-linking) or CHAPS-solubilized lysate (co-IP)
In the case of B4, the “stoichiometry N” value amounted to 4.
